B1: functionally active murine recombinant MASP-2 protein (protein)
chain: SKWPEPVFGRLVSPGFPEKYADHQDRSWTLTAPPGYRLRLYFTHFDLELSYRCEYDFVKLSSGTKVLATLCGQESTDTEQAPGNDTFYSLGPSLKVTFHSDYSNEKPFTGFEAFYAAEDVDECRVSLGDSVPCDHYCHNYLGGYYCSCRAGYVLHQNKHTCSALCSGQVFTGKSGYLSSPEYPQPYPKLSSCTYSIRLEDGFSVILDFVESFDVETHPEAQCPYDSLKIQTDKGEHGPFCGKTLPPRIETDSHKVTITFATDESGNHTGWKIHYTSTARPCPDPTAPPNGSISPVQAIYVLKDRFYVFCKTGFELLQGSVPLKSFTAVCQKDGSWDRPMPECS
B2: catalytically inactive murine MASP-2A recombinant protein (protein)
chain: B1 chain

Biological target: purified human C4, P0C0L4
Sequence (P0C0L4 whole entry, looked up): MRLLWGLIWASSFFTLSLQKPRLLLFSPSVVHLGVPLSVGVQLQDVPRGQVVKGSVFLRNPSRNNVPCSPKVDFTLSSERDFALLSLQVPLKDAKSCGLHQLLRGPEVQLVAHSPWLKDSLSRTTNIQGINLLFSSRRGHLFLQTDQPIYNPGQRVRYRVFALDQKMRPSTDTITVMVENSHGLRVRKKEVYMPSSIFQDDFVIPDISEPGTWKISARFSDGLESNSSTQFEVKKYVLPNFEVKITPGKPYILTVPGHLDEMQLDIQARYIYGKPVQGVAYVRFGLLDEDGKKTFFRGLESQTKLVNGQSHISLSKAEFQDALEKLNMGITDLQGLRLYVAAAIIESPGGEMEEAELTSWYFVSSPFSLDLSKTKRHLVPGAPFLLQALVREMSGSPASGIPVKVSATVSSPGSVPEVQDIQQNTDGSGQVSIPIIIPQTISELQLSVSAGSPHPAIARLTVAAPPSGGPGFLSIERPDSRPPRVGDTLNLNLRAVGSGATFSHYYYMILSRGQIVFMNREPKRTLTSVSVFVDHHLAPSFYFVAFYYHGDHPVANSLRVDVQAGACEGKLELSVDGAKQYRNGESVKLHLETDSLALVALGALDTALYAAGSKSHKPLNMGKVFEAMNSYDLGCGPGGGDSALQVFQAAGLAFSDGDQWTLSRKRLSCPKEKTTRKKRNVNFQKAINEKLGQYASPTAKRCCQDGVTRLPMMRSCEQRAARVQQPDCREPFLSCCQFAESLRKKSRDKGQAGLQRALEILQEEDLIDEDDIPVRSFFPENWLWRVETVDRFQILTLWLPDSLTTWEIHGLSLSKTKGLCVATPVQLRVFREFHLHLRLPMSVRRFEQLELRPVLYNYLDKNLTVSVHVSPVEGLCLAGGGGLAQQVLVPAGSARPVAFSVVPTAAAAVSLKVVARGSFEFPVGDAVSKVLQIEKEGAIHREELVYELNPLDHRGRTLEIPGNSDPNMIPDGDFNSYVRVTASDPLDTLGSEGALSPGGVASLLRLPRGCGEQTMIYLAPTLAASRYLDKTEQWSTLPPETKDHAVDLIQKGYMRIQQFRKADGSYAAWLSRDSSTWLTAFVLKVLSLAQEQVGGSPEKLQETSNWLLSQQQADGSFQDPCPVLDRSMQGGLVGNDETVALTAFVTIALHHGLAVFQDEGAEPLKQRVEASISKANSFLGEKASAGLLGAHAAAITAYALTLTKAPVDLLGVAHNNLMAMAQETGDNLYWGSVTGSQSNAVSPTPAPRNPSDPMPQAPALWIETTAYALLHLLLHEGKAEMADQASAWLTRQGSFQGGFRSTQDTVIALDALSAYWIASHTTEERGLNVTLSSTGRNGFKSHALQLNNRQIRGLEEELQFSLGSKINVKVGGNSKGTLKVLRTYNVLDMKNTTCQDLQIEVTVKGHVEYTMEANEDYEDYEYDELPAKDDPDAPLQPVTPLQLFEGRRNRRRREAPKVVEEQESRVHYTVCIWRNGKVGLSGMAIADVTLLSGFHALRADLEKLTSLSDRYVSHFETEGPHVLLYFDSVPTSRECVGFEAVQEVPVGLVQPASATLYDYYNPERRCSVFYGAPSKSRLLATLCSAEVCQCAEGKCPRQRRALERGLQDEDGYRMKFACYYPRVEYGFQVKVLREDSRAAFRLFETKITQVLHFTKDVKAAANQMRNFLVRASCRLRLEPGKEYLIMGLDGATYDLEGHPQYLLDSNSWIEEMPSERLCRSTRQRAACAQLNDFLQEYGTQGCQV

| Protein | lectin pathway-dependent C4 activation (C4 cleavage assay, C4b deposition on mannan) in pooled MASP-2-/- mouse serum |
| --- | --- |
| B1 | restored lectin pathway-dependent C4 activation in a protein concentration dependent manner |
| B2 | did not restore C4 activation |
